The series deals with N[C@H](COP(=O)(O)O)Cc1c[nH]cn1. The series can be described thus: purified protein. Particulars: 100 mM Tris/HCl pH 7.8, 5 mM MgCl2, 25°C.

For orientation: Km means the concentration of substrate that gives half-maximal velocity. What is called kcat is the number of substrate molecules converted per active site and unit of time at saturation. Broadly, the kcat/Km is the second-order rate constant that governs catalysis at low substrate concentration. Consider ecHisB‐N (Escherichia coli K-12), for which the Km was determined as 48 ± 3 µM, the kcat came out at 2.8 ± 0.1 s⁻¹ and the kcat/Km came out at 58000 M⁻¹ s⁻¹.

These data come from publication PMC9798254.
